We go through 13 molecules from US20230131339A1, “EPI-X4 BASED PEPTIDES AND DERIVATIVES THEREOF” (Universitaet Ulm, priority 2020, published 2023).

Where “and” joins values, the source holds several entries; their conditions need not be identical. Equal entries are not always repeated. Where a SMILES comes first, the peptide text is derived from it. Primed or numbered codes have the meaning given here. Where no end group is shown, it is not given here. Side-chain parts run from the residue outwards. [ ]: non-standard residue; d: D form. The star is where a group is joined. Glu″ = glutamate linker (Glu-Pal); Palmitoyl = CCCCCCCCCCCCCCCC(=O)*; Ole = not defined here

For orientation: IC50 means the point on the concentration scale where inhibition reaches its midpoint. High values mean a need for much substance, low ones inhibition by little substance.

Test [1] relates to CXCR4-tropic X4-HIV-1 (NL4-3). The class given is cell-based. The note with it: for IC50: CXCR4-tropic X4- (NL4-3).
Protocol: The activity of the peptides was estimated by different assays.
The X4-HIV inhibition assay is designed to measure the activity of the inventive peptides by their efficiency of blocking the infection of tissue culture cells by CXCR4-tropic HIV-1 variants.
HIV-1 inhibition assay. […] For infection of TZM-bl cells in presence of inhibitors, cells were seeded at a density of 1×10^5 cells/ml in 70 μl DMEM containing 2.5% FCS. Compounds were diluted in PBS and 10 μl were added. After 15 minutes of incubation cells were inoculated with 20 μl of diluted virus. Infection rates were determined three days later using Gal-Screen system (Applied Biosystems).
Test [2] concerns the target CXC chemokine receptor type 4 (CXCR4) (human, UniProt P61073 1-352). The test is described as follows: cell-based or functional assay.

CXC chemokine receptor type 4 (CXCR4), sequence (P61073 whole entry): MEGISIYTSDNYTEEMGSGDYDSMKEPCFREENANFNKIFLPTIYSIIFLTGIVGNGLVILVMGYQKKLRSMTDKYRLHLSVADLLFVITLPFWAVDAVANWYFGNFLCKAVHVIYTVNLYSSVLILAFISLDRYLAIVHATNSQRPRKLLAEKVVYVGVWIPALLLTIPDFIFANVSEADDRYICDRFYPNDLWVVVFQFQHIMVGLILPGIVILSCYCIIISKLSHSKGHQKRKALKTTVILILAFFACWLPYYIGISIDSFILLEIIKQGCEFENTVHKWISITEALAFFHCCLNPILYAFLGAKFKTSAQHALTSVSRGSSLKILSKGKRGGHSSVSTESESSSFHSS

In test [1], `CC[C@H](C)[C@H](N)C(=O)N[C@@H](CC(C)C)C(=O)N[C@@H](CCCNC(=N)N)C(=O)N[C@@H](Cc1c[nH]c2ccccc12)C(=O)N[C@@H](CO)C(=O)N[C@@H](CCCNC(=N)N)C(=O)N[C@@H](CCCCN)C(=O)N[C@@H](CCSC)C(=O)N1CCC[C@H]1C(=O)N[C@@H](CS)C(=O)N[C@@H](Cc1ccccc1)C(=O)N[C@@H](CO)C(=O)O` [JM #19] (H-ILRWSRKMPCFS-OH; C-terminus assumed) came in with an IC50 of 5 to 10 nM.

As for “d-MLRWSRKK(Glu-Pal)-NH2 ([dM]LRWSRKK([Glu″-Palmitoyl])-NH2) [JM #197]”, the “anti-HIV-1 activity (in words)” value in test [1] is listed as “strongly increased anti-HIV-1 activity”.

In test [1], `CC[C@H](C)[C@H](N)C(=O)N[C@@H](CC(C)C)C(=O)N[C@@H](CCCNC(=N)N)C(=O)N[C@@H](Cc1c[nH]c2ccccc12)C(=O)N[C@@H](CO)C(=O)N[C@@H](CCCNC(=N)N)C(=O)N[C@@H](CCCCN)C(=O)N[C@@H](CCSC)C(=O)N1CCC[C@H]1C(=O)N[C@@H](CS)C(=O)N[C@H](C(=O)N[C@@H](CO)C(=O)O)C(C)C` [JM #13] (H-ILRWSRKMPCVS-OH; C-terminus assumed) yielded an IC50 below 5 nM.

Consider “d-LMRWSRKK(Glu-Pal)-NH2 ([dL]MRWSRKK([Glu″-Palmitoyl])-NH2) [JM #195]”, for which the “anti-HIV-1 activity (in words)” value in test [1] is “strongly increased anti-HIV-1 activity”.

For ILRWSRK-NH2 (not fully specified (residue 7)) [JM#255], in test [2], the “IC50, X4-HIV-1 inhibition assay” value is below 5 nM.

Regarding ILRWSRKLPCVS (not fully specified (residue 7)) [JM#213], the “IC50, HIV inhibition assay” value in test [2] lay within 5 to 10 nM.

In the case of [dL]MRWSRK-NH2 (not fully specified (residue 7)) [JM#194], in test [2], the “IC50, X4-HIV-1 inhibition assay” value was < 5 nM and 2 nM.

B1: JM#180 (peptide)
peptide: [dL]MRWSRK(Palmitoyl)-NH2
modifications: N-terminus assumed
SMILES: CCCCCCCCCCCCCCCC(=O)NCCCC[C@H](NC(=O)[C@H](CCCNC(=N)N)NC(=O)[C@H](CO)NC(=O)[C@H](Cc1c[nH]c2ccccc12)NC(=O)[C@H](CCCNC(=N)N)NC(=O)[C@H](CCSC)NC(=O)[C@H](N)CC(C)C)C(N)=O
Regarding B1, the “IC50, HIV inhibition assay” value in test [2] was in the range of 5 to 10 nM.

With ILRWSRK(Ole)LPCVS (reading uncertain) [JM#183], the “IC50, HIV inhibition assay” value in test [2] lay in the range of 5 to 10 nM.

With [dI]LRWSRK-NH2 (not fully specified (residue 7)) [JM#238], the “IC50, HIV inhibition assay” value in test [2] lay in the range of 5 to 10 nM.

For the molecule [dL]LRWSRK-NH2 (not fully specified (residue 7)) [JM#235], the “IC50, HIV inhibition assay” value in test [2] lay in the range of 5 to 10 nM.

With [dL]LRWSRK-NH2 (not fully specified (residue 7)) [JM#257], the “IC50, HIV inhibition assay” value in test [2] fell in the range of 5 to 10 nM.

B2: JM#172 (peptide)
peptide: ILRWSRK(Palmitoyl)L-NH2
modifications: N-terminus assumed
SMILES: CCCCCCCCCCCCCCCC(=O)NCCCC[C@H](NC(=O)[C@H](CCCNC(=N)N)NC(=O)[C@H](CO)NC(=O)[C@H](Cc1c[nH]c2ccccc12)NC(=O)[C@H](CCCNC(=N)N)NC(=O)[C@H](CC(C)C)NC(=O)[C@@H](N)[C@@H](C)CC)C(=O)N[C@@H](CC(C)C)C(N)=O
On to B2, for which the “IC50, HIV inhibition assay” value in test [2] was 5 to 10 nM.
